In patent US20060166324, “Screening tools for discovery of novel anabolic agents” (USA as represented by the Dept. of Veterans Affairs, published 2006):

B1: IGF-1 ARE1 probe (dsDNA)
DNA 1: GACTTGACCATATCTTATTCCTCTTTG
DNA 2: CAAAGAGGAATAAGATATGGTCAAGTC
B2: consensus SRE probe (dsDNA)
DNA 1: ATGCATTGGGTACATCTTGTTCACATA
DNA 2: TATGTGAACAAGATGTACCCAATGCAT
B3: IGF-1 ARE2 probe (dsDNA)
DNA 1: TTGTAGTTGGGCACATAGTAGAGCTCA
DNA 2: TGAGCTCTACTATGTGCCCAACTACAA

Tests used:
[1] = system: Androgen receptor (full length) (Homo sapiens); experiment: cell_activity; settings: HepG2 luciferase reporter, testosterone
[2] = system: Glucocorticoid receptor (Rattus norvegicus); experiment: cell_activity; settings: HepG2 luciferase reporter, dexamethasone
[3] = molecular target: T1, Androgen receptor DNA-binding domain (Homo sapiens, UniProt P10275 P10275:560-632); experiment: EMSA; band weaker than SRE; diminished by excess cold SRE; settings: tags: GST fusion (pGEX 4T-1 hAR2, E. coli BL21); label: 32P
From the text: (§1) In order to more directly test whether the AR bound to sequences with ARE1 and ARE2, binding of a GST-tagged version of recombinant AR DNA-binding domain to radiolabeled probes was examined using electrophoretic mobility shift assays.

[4] = molecular target: T1, Androgen receptor DNA-binding domain; experiment: EMSA; strong band, greatly diminished by excess unlabeled probe; settings: tags: GST fusion (pGEX 4T-1 hAR2, E. coli BL21); label: 32P
From the text: as §1

[5] = molecular target: T1, Androgen receptor DNA-binding domain; experiment: EMSA; band consistently weaker than SRE; greatly diminished by excess cold SRE; settings: tags: GST fusion (pGEX 4T-1 hAR2, E. coli BL21); label: 32P
From the text: as §1

T1 sequence (P10275 560-632, one chain of several): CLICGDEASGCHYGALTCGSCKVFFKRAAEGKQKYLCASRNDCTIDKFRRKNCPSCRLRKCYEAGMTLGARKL

| Molecule | activity (fold induction) [1] | activity (fold induction) [2] | also measured |
| --- | --- | --- | --- |
| pGL3-13a IGF-1 promoter insert -1370 to -1250 (ARE2) | > 20 | 5 | – |
| pGL3-22 IGF-1 promoter insert -1508 to -1402 (ARE1) | > 5 | < 2 | – |
| pGL3-32 IGF-1 promoter insert -1429 to -1250 (ARE1 and ARE2) | – | 5 | activity (fold induction) ([1]; 25-fold plateau in FIG. 15): 30 |
| B1 | – | – | binding result [3]: binds |
| B2 | – | – | binding result [4]: binds |
| B3 | – | – | binding result [5]: binds |
